Reference: US20190248883 (published 2019)
One block for each binder: values may come before it.

Columns and labels:
[1] = biological target: GRO-beta (human, UniProt P19875); assay: ELISA
[2] = biological target: GRO-alpha (human, UniProt P09341); assay: ELISA
[3] = biological target: IP-10 (human, UniProt P02778); assay: ELISA
[4] = biological target: T1, IL-8 (human, UniProt P10145); assay: SPR, 37C, bivalent
[5] = biological target: T1, IL-8; assay: SPR, 25C, bivalent
[6] = biological target: T1, IL-8; assay: SPR, 25C
[7] = biological target: T1, IL-8; assay: SPR, 37C

T1 sequence (P10145 28-99): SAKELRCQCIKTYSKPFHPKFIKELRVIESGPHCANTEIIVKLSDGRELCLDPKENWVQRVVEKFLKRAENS
Sequence of IP-10 (P02778 22-98): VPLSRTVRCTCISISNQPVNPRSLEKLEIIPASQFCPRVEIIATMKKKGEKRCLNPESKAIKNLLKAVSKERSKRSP
Sequence of GRO-beta (P19875 35-107): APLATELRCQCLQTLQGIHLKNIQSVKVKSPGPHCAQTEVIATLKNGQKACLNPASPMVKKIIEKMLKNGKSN
Sequence of GRO-alpha (P09341 35-107): as the sequence (P19875 35-107) above, with P2S, L3V, L20P, K27N, Q48R, M58I, K68N, N69S, G70D counted along it

- binding result [1]: no binding
- binding result [2]: no binding
- binding result [3]: no binding
- Kd [4]: 0.02 nM
- Kd [5]: 0.01 nM
B1: 10F8 IgG1,kappa (antibody, V domains shown)
VH: QVQLVESGGGVVQPGRSLRLSCTASGFTFSHYGMYWVRQAPGKGLEWVAVIWYDGSYEYNADSVKGRFTISRDNSKNTLYLQMNSLRAEDTAVYYCARDRVGLFDYWGQGTLVTVSS
VL: EIVLTQSPGTLSLSPGERATLSCRASQSISSSYLAWYQQKPGQAPRLLIYGPSSRATGIPDRFSGSGSGTDFTLTISRLEPEDFAVYYCQQYAGSLTFGPGTKVDIK

- Kd [6]: 0.194 nM
- Kd [7]: 0.372 nM
B2: 10F8 Fab (antibody, V domains shown)
VH: B1 VH
VL: B1 VL
